According to patent publication US20180346554A1 (University of Pennsylvania, published 2018):

Columns and labels:
Experiment in all cases: cell-based or functional assay
[1] = target: Env of the HIV-1 pseudotyped virus SF162S (clade B, Tier 1) (HIV-1 (clade B, SF162S))
[2] = target: Env of the HIV-1 pseudotyped virus Bal26 (clade B, Tier 1) (HIV-1 (clade B, Bal26))
[3] = target: Env of the HIV-1 pseudotyped virus Q23Env17 (clade A, Tier 1) (HIV-1 (clade A, Q23Env17))

B1: HIV-1 Env-Fab (Fab generated from the VRC01 antibody by pHIV-1 Env Fab) (Fab, V domains shown)
VH: QVQLVQSGGQMKKPGESMRISCRASGYEFIDCTLNWIRLAPGKRPEWMGWLKPRGGAVNYARPLQGRVTMTRDVYSDTAFLELRSLTVDDTAVYFCTRGKNCDYNWDFEHWGRGTPVIVSS
VL: QIVLTQSPGTLSLSPGETAIISCRTSQYGSLAWYQQRPGQAPRLVIYSGSTRAAGIPDRFSGSRWGPDYNLTISNLESGDFGVYYCQQYEFFGQGTKVQVDI
plateau percent neutralization (TZM-Bl luciferase assay, serum 1:50) [1]: ~70%
plateau percent neutralization (TZM-Bl luciferase assay, serum 1:50) [2]: ~62%
plateau percent neutralization (TZM-Bl luciferase assay, serum 1:50) [3]: ~60%
